In patent publication US20170240596A1:
No end group written: not given here.

Target: Prostate-specific membrane antigen (PSMA) (human), Q04609
Test: apparent Kd, flow cytometry, FAM-labeled peptide on PSMA-positive LNCaP cells, 4 C
Details: remark: other sources report otherwise

Sequence of Prostate-specific membrane antigen (PSMA) (human), Q04609 (Q04609 whole entry): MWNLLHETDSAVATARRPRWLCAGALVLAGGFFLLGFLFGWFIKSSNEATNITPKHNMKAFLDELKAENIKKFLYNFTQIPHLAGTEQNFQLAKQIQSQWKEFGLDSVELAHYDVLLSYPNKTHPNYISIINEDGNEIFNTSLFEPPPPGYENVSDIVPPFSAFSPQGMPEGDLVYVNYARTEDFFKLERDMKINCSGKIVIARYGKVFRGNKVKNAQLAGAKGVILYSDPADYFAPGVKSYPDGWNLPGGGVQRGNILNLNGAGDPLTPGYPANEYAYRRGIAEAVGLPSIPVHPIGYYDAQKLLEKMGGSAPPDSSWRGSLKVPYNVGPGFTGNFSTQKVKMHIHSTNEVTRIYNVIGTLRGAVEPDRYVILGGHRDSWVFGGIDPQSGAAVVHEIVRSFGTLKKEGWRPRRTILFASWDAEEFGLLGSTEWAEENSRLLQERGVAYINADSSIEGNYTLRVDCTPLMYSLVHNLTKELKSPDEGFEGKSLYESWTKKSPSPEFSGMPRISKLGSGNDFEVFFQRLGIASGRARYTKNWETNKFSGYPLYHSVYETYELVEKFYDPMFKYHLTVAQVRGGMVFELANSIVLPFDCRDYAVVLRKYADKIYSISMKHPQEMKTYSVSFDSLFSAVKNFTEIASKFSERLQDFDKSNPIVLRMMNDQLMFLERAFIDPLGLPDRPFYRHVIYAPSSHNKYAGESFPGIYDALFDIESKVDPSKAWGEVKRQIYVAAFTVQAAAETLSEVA

Work on WQPDTAHHWATL (also: FAM label, position not given here) [FAM-labeled WQP peptide …] yielded a Kd of 23.6 µM.
